# Experimental data: FireProtDB (doi:10.1007/s10930-015-9600-7)
# B1: Carboxymethylenebutenolidase, P0A115 (parent)
# chain: MLTEGISIQSYDGHTFGALVGSPAKAPAPVIVIAQEIFGVNAFMRETVSWLVDQGYAAVCPDLYARQAPGTALDPQDERQREQAYKLWQAFDMEAGVGDLEAAIRYARHQPYSNGKVGLVGYCLGGALAFLVAAKGYVDRAVGYYGVGLEKQLKKVPEVKHPALFHMGGQDHFVPAPSRQLITEGFGANPLLQVHWYEEAGHSFARTSSSGYVASAAALANERRLDFLAPLQSKKP
# Variants of: B1
# Conditions: Pseudomonas knackmussii (strain DSM 6978 / CCUG 54928 / LMG 23759 / B13), pH 7.5, Thermal, Hepes 50 mM, structure 4U2B, whole UniProt chain shown
Variant,"Tm (Activity, NaCl 75 mM) [°C]","change of melting temperature, mutant - wild type (higher = more stable) (Activity, NaCl 75 mM) [°C]",Tm (fluorescence) [°C],"change of melting temperature, mutant - wild type (higher = more stable) (fluorescence) [°C]"
MLTEGISIQSYDGHTFGALVGSPAKAPAPVIVIAQEIFGVNAFMRETVSWLVDQGYAAVCPDLYARQAPGTALDPQDERQREQAYKLWQAFDMEAGVGDLEAAIRYARHLPYSNGKVGLVGYCLGGALAFLVAAKGYVDRAVGYYGVGLEKQLDKVPEVKHPALFHMGGQDHFVPAPSRQLITEGFGANPLLQVHWYEEAGHSFARTSSSGYVASAAALANERRLDFLAPLQSKKP [Q110L K154D],54.2,3.1,54.8,3.3
MLTEGISIQSYDGHTFGALVGSPAKAPAPVIVIAQEIFGVNAFMRETVSWLVDQGYAAVCPDLYARQAPGTALDPQDERQREQAYKLWQAFDMEAGVGDLEAAIRYARHQPYSNGKVGLVGYCLGGALAFLVAAKGCVDRAVGYYGVGLEKQLKKVPEVKHPALFHMGGQDHFVPAPSRQLITEGFGANPLLQVHWYEEAGHSFARTSSSGYVASAAALANERRLDFLAPLQSKKP [Y137C],49.3,-1.9,50.8,-0.7
MLTEGISIQSYDGHTFGALVGSPAKAPAPVIVIAQEIFGVNAFMRETVSWLVDQGYAAVCPDLYARQAPGTALDPQDERQREQAYKLWQAFDMEAGVGDLEAAIRYARHQPYSNGKVGLVGYCLGGALAFLVAAKGYVDRAVGYYGVGLEKQLDKVPEVKHPALFHMGGQDHFVPAPSRQLITEGFGANPLLQVHWYEEAGHSFARTSSSGYVASAAALANERRLDFLAPLQSKKP [K154D],53.9,2.7,54.4,2.9
